Assay results: publication doi:10.1101/2024.05.03.592409 (bioRxiv, 2024)

Assays:
Assay in all cases: PIE-FCCS
[1] = biological target: GCN4 (membrane protein construct, live-cell dimer control)
HER3 = HER3 (human, UniProt P21860 20-1342)
HER2 = HER2 (human, UniProt P04626 23-1255)
EGFR = EGFR (human, UniProt P00533 25-1210)

Sequence of HER3 (P21860 20-1342): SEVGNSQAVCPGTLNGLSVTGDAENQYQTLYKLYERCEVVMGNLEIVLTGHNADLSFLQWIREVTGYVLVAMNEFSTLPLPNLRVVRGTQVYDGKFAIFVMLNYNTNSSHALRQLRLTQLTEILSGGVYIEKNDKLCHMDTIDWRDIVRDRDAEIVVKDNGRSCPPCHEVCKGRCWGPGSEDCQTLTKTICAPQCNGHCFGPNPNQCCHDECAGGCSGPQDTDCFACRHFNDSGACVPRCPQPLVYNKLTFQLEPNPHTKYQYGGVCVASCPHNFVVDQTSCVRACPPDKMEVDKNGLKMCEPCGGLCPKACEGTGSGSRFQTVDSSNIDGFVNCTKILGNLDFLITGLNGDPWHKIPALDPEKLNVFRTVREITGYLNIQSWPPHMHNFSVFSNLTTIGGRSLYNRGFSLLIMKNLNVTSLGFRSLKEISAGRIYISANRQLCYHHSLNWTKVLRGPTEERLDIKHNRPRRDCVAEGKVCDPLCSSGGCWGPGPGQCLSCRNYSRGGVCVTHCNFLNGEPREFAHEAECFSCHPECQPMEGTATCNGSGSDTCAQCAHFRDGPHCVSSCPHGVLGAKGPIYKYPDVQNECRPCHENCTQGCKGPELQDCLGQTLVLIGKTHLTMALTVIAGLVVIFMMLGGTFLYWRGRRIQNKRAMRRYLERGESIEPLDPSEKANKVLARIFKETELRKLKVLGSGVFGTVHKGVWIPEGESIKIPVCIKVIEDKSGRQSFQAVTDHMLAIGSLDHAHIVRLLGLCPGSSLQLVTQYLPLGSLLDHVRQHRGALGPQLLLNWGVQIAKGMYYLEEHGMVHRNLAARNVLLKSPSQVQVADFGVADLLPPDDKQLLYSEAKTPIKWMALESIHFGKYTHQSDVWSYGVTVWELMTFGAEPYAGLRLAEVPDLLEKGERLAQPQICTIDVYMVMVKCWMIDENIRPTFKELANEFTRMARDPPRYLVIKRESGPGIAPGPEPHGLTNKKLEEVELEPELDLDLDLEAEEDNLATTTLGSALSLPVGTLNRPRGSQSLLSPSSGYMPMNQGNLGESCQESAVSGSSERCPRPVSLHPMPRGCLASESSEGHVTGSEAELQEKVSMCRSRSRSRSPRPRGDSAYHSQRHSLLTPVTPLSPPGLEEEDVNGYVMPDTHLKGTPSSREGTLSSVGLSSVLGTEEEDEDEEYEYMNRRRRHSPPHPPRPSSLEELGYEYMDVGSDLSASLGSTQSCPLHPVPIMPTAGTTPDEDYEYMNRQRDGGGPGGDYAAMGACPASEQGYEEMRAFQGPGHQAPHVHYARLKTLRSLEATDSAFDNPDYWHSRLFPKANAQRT

Row | Molecule | median fc (fraction of cross-correlation) [1] | stoichiometry N [1] | median fc (fraction of cross-correlation) (HER3) | median fc (fraction of cross-correlation) (HER2) | median fc (fraction of cross-correlation) (EGFR)
1 | GCN4 (membrane protein construct, live-cell dimer control) | 0.15 | 2 |  |  | 
2 | HER4 (receptor) QSVCAGTENKLSSLSDLEQQYRALRKYYENCEVVMGNLEITSIEHNRDLSFLRSVREVTGYVLVALNQFRYLPLENLRIIRGTKLYEDRYALAIFLNYRKDGNFGLQELGLKNLTEILNGGVYVDQNKFLCYADTIHWQDIVRNPWPSNLTLVSTNGSSGCGRCHKSCTGRCWGPTENHCQTLTRTVCAEQCDGRCYGPYVSDCCHRECAGGCSGPKDTDCFACMNFNDSGACVTQCPQTFVYNPTTFQLEHNFNAKYTYGAFCVKKCPHNFVVDSSSCVRACPSSKMEVEENGIKMCKPCTDICPKACDGIGTGSLMSAQTVDSSNIDKFINCTKINGNLIFLVTGIHGDPYNAIEAIDPEKLNVFRTVREITGFLNIQSWPPNMTDFSVFSNLVTIGGRVLYSGLSLLILKQQGITSLQFQSLKEISAGNIYITDNSNLCYYHTINWTTLFSTINQRIVIRDNRKAENCTAEGMVCNHLCSSDGCWGPGPDQCLSCRRFSRGRICIESCNLYDGEFREFENGSICVECDPQCEKMEDGLLTCHGPGPDNCTKCSHFKDGPNCVEKCPDGLQGANSFIFKYADPDRECHPCHPNCTQGCNGPTSHDCIYYPWTGHSTLPQHARTPLIAAGVIGGLFILVIVGLTFAVYVRRKSIKKKRALRRFLETELVEPLTPSGTAPNQAQLRILKETELKRVKVLGSGAFGTVYKGIWVPEGETVKIPVAIKILNETTGPKANVEFMDEALIMASMDHPHLVRLLGVCLSPTIQLVTQLMPHGCLLEYVHEHKDNIGSQLLLNWCVQIAKGMMYLEERRLVHRDLAARNVLVKSPNHVKITDFGLARLLEGDEKEYNADGGKMPIKWMALECIHYRKFTHQSDVWSYGVTIWELMTFGGKPYDGIPTREIPDLLEKGERLPQPPICTIDVYMVMVKCWMIDADSRPKFKELAAEFSRMARDPQRYLVIQGDDRMKLPSPNDSKFFQNLLDEEDLEDMMDAEEYLVPQAFNIPPPIYTSRARIDSNRSEIGHSPPPAYTPMSGNQFVYRDGGFAAEQGVSVPYRAPTSTIPEAPVAQGATAEIFDDSCCNGTLRKPVAPHVQEDSSTQRYSADPTVFAPERSPRGELDEEGYMTPMRDKPKQEYLNPVEENPFVSRRKNGDLQALDNPEYHNASNGPPKAEDEYVNEPLYLNTFANTLGKAEYLKNNILSMPEKAKKAFDNPDYWNHSLPPRSTLQHPDYLQEYSTKYFYKQNGRIRPIVAENPEYLSEFSLKPGTVLPPPPYRHRNTVV |  |  | 0.11 | 0.17 | 0.17
